Source: PMC9105384, “Ethyl Gallate Dual-Targeting PTPN6 and PPARγ Shows Anti-Diabetic and Anti-Obese Effects” (International Journal of Molecular Sciences, 2022)

Test system: T1, Cc1cc(=O)oc2c(F)c(OP(=O)(O)O)c(F)cc12
T1 construct: Full-length human PTPN6 with an N-terminal hexahistidine (His6) tag
Assay: Michaelis-Menten kinetics, fluorescence (Km)
Assay type: biochemical, Homo sapiens

For PTPN6 (Homo sapiens), the Km was 86.26 µM.
